Laboratory results published in US20210332123A1 (SUZHOU KANOVA BIOPHARMACEUTICAL, published 2021).

T1: cynomolgus IL-25 (cynomolgus, UniProt G7P9V9 33-176)
T1 construct: In-house production
T1 sequence: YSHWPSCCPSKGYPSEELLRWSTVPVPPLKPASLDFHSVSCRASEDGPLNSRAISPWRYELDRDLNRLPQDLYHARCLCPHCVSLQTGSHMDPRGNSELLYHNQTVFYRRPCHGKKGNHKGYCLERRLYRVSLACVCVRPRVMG

T2: human IL-17D (human, UniProt Q8TAD2 18-202, limits assumed)
T2 sequence (looked up): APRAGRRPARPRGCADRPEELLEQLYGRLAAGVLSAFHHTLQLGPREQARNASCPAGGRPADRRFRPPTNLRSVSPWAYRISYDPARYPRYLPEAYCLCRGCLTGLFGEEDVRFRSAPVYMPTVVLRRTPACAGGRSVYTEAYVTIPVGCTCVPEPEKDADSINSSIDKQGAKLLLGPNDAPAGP

T3: human IL-17F (human, UniProt Q96PD4 31-163)
T3 sequence (looked up): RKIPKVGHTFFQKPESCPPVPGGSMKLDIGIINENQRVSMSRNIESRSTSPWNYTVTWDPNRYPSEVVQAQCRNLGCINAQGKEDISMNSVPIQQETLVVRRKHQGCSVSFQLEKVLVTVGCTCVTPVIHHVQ

T4: human IL-17A (human, UniProt Q16552 24-155, limits assumed)
T4 sequence (looked up): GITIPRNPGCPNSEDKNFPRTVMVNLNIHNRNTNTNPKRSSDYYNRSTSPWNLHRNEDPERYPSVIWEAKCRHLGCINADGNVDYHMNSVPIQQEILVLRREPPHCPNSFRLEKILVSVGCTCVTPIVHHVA

T5: human IL-17B (human, UniProt Q9UHF5 21-180)
T5 sequence (looked up): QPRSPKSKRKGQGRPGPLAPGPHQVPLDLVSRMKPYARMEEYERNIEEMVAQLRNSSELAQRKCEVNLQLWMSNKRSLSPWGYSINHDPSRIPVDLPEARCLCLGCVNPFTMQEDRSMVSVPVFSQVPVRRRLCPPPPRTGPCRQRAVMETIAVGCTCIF

T6: human IL-17C (human, UniProt Q9P0M4 19-197)
T6 sequence (looked up): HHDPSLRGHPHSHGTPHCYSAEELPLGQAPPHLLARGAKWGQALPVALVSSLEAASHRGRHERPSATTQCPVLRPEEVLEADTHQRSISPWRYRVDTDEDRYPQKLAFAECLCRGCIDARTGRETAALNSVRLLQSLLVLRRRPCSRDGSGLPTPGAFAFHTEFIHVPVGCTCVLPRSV

T7: human IL-25 (human, UniProt Q9H293 33-177)
T7 construct: ELISA used bought R&D systems #1258-IL-025/CF; Treated as one molecule; also called IL-17E; human IL-17E
T7 sequence (looked up): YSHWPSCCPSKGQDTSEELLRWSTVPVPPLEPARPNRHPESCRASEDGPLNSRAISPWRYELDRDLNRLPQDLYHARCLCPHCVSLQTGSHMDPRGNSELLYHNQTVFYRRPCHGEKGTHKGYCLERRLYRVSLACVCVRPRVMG

B1: murine anti-IL-25 monoclonal antibody 18H3 (antibody, V domains shown)
VH: QVTLKESGPGILQPSQTLSLTCSFSGFSLSTSGMGLGWIRQPSGKGLEWLAHIWWDDVKHYKPALKSRLTISKDISSSQVFLTIASVDTADTATYYCARMGQLHYYGYDYAMDYWGQGTSVTVSS
VL: QIVLTQSPAIMSASPGEKVTISCSASSSVSYMYWYQQKPGSSPKPWIYRTSNLASGVPARFSGSGSGTSYSLTISSMEAEDAATYYCQLYHSYPPTWTFGGGTKLEIK
notes: also called parental antibody; parental murine mAb
B2: VH1-1 + VL2-1 (humanized anti-IL-25 antibody formed by VH1-1 and VL2-1) (antibody, V domains shown)
VH: QVTLKESGPTLVKPTQTLTLTCTFSGFSLSTSGMGLGWIRQPPGKALEWLAHIWWDDVKHYKPALKSRLTITKDTSKNQVVLTMTNVDPVDTATYYCARMGQLHYYGYDYAMDYWGQGTLVTVSS
VL: DIQLTQSPSFLSASVGDRVTITCSASSSVSYMYWYQQKPGKAPKPLIYRTSNLASGVPSRFSGSGSGTEYTLTISSMQPEDFATYYCQLYHSYPPTWTFGQGTKLEIK
B3: VH2-1 + VL1-2 (humanized anti-IL-25 antibody formed by VH2-1 and VL1-2) (antibody, V domains shown)
VH: QVTLRESGPALLKPTQTLTLTCTFSGFSLSTSGMGLGWIRQPPGKALEWLAHIWWDDVKHYKPALKSRLTISKDTSKNQVVLTITNVDPVDTATYYCARMGQLHYYGYDYAMDYWGQGTLVTVSS
VL: EIVLTQSPATLSASPGERVTISCSASSSVSYMYWYQQKPGQAPRPLIYRTSNLASGVPARFSGSGSGTDYTLTISSMEPEDFATYYCQLYHSYPPTWTFGQGTKLEIK
B4: VH2-1 + VL2-1 (humanized anti-IL-25 antibody formed by VH2-1 and VL2-1) (antibody, V domains shown)
VH: QVTLRESGPALLKPTQTLTLTCTFSGFSLSTSGMGLGWIRQPPGKALEWLAHIWWDDVKHYKPALKSRLTISKDTSKNQVVLTITNVDPVDTATYYCARMGQLHYYGYDYAMDYWGQGTLVTVSS
VL: DIQLTQSPSFLSASVGDRVTITCSASSSVSYMYWYQQKPGKAPKPLIYRTSNLASGVPSRFSGSGSGTEYTLTISSMQPEDFATYYCQLYHSYPPTWTFGQGTKLEIK
B5: VH1-1 + VL1-2 (humanized anti-IL-25 antibody formed by VH1-1 and VL1-2) (antibody, V domains shown)
VH: QVTLKESGPTLVKPTQTLTLTCTFSGFSLSTSGMGLGWIRQPPGKALEWLAHIWWDDVKHYKPALKSRLTITKDTSKNQVVLTMTNVDPVDTATYYCARMGQLHYYGYDYAMDYWGQGTLVTVSS
VL: EIVLTQSPATLSASPGERVTISCSASSSVSYMYWYQQKPGQAPRPLIYRTSNLASGVPARFSGSGSGTDYTLTISSMEPEDFATYYCQLYHSYPPTWTFGQGTKLEIK
notes: Captured by anti-human Fc gamma antibody in SPR

Legend:
cynomolgus IL-25 = target: T1, cynomolgus IL-25; test: ELISA, plate coated with cynomolgus IL-25 (cynoIL25-his), OD450, Example 7 [panel cynoIL25-his]
human IL-17D = target: T2, human IL-17D; test: ELISA, plate coated with 2 µg/ml cytokine
Experimental: (§1) MaxiSorp 96-well plates (NUNC #449824, www.thermofisher.com) were coated with 2 μg/ml human IL-17A (Cell Signaling #89285F, www.cellsignal.com), human IL-17F (Cell Signaling #8906LC, www.cellsignal.com), human IL-17B (Peprotech #200-28, www.peprotech.com), human IL-17C (R&D systems #1234-IL-025/CF, www.rndsystems.com), human IL-17D ((Peprotech #200-27, www.peprotech.com), human IL-17E (R&D systems #1258-IL-025/CF, www.rndsystems.com) in 1×PBS (50 μl/well) respectively. Plates were incubated at 4° C. overnight. Coating solution was removed and plates were washed once with 200 μl/well PBST (1×PBS with 0.05% tween-20). Then 200 μl/well blocking buffer (1×PBS with 0.05% tween-20, 3% BSA) was added and incubated at room temperature for 1 hour. Blocking buffer was removed and plates were washed three times with 200 μl/well PBST (1×PBS with 0.05% tween-20). The anti-IL-25 antibodies (produced in Example 2), were diluted to 10, 3.33, 1.11, 0.37, 0.123, 0.041, 0.0137, 0.0046, 0.0015, 0.00031, 0.000102, 0.000034 μg/ml by 1×PBS and added to the plates (50 μl/well). Plates were incubated at room temperature for 2 hours. Antibodies in the wells were removed and plates were washed three times with 200 μl/well PBST (1×PBS with 0.05% tween-20) each time. Goat anti-human IgG(H&L)-HRP secondary antibody (Jackson Immuno Research #109-035-088, www.jacksonimmuno.com) was diluted 1:5000 in 1×PBS and added to each well (50 μl/well). Plates were incubated at room temperature for 1 hour. Secondary antibody was removed and plates were washed seven times with 200 μl/well PBST (1×PBS with 0.05% tween-20) each time. 50 μl/well TMB (eBioscience #85-00-4201-56, www.ebioscience.com) was added and plates were incubated at room temperature for several minutes. Then 50 μl/well 2N H₂SO₄ was added to stop the reaction. Plates were read at 450 nm.

human IL-17F = target: T3, human IL-17F; test: ELISA, plate coated with 2 µg/ml cytokine
Experimental: as §1

human IL-17A = target: T4, human IL-17A; test: ELISA, plate coated with 2 µg/ml cytokine
Experimental: as §1

human IL-17B = target: T5, human IL-17B; test: ELISA, plate coated with 2 µg/ml cytokine
Experimental: as §1

human IL-17C = target: T6, human IL-17C; test: ELISA, plate coated with 2 µg/ml cytokine
Experimental: as §1

human IL-25 = target: T7, human IL-25; test: ELISA, plate coated with 2 µg/ml human IL-17E (IL-25)
Experimental: as §1

Row | Binder | EC50 (cynomolgus IL-25) [nM] | binding result (human IL-17D) | binding result (human IL-17F) | binding result (human IL-17A) | binding result (human IL-17B) | binding result (human IL-17C) | EC50 (human IL-25) [nM]
1 | B1 | 2.35 | – | – | – | – | – | –
2 | B2 | 1.51 | no binding (tested: 10 µg/ml) | no binding (tested: 10 µg/ml) | no binding (tested: 10 µg/ml) | no binding (tested: 10 µg/ml) | no binding (tested: 10 µg/ml) | 0.15
3 | B3 | 1.12 | no binding (tested: 10 µg/ml) | no binding (tested: 10 µg/ml) | no binding (tested: 10 µg/ml) | no binding (tested: 10 µg/ml) | no binding (tested: 10 µg/ml) | 0.196
4 | B4 | – | no binding (tested: 10 µg/ml) | no binding (tested: 10 µg/ml) | no binding (tested: 10 µg/ml) | no binding (tested: 10 µg/ml) | no binding (tested: 10 µg/ml) | 0.187
5 | B5 | – | no binding (tested: 10 µg/ml) | no binding (tested: 10 µg/ml) | no binding (tested: 10 µg/ml) | no binding (tested: 10 µg/ml) | no binding (tested: 10 µg/ml) | 0.25
